T1: AAV8 (adeno-associated virus 8, Assembled 60-mer capsid of VP1/VP2/VP3 (nested products of one cap gene), amine-coupled to a CM5 chip; the letters give one VP1 subunit only.)
T1 construct: also called adeno-associated virus serotype 8
T1 chain: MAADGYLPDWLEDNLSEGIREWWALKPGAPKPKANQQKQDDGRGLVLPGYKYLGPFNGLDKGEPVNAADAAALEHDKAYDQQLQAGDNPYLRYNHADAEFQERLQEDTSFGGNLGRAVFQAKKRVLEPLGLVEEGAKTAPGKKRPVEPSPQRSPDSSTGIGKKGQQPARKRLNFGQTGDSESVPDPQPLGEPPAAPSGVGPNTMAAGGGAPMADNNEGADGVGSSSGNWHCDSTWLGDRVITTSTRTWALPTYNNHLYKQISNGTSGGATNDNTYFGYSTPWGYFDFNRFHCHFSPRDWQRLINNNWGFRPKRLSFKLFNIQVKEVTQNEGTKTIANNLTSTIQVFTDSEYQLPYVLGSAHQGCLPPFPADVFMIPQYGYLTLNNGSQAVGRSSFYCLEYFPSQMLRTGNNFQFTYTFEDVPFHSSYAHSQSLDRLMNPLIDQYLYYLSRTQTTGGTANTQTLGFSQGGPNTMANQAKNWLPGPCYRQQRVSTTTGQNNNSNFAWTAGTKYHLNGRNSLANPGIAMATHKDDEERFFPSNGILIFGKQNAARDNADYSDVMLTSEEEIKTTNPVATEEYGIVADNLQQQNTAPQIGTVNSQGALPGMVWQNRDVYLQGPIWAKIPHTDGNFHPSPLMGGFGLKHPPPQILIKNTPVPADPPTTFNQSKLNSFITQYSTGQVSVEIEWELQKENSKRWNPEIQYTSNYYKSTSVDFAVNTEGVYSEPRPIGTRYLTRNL

B1: A4-D7 (bispecific antibody)
chain: VQLQESGGGLVQTGGSLRLSCAASGRAFSLNTMGWYRQAPGKWRELVATVTRGGSTNYAGSVKGRFTISRDNAKNTVYLQMNNLRPEDTAVYYCHVDEVRESSWTTSNLWGQGTQVTVSSGGGGSGGGGSGGGGSVQLQESGGGLVQPGGSLRLSCAASGSIFTINSMGWYRQAPGKWRELVATVTRGGNTNYANSVKGRFTISRDNAKNTVYLQMNTLRPEDTAVYYCHLDEVRDSSWTTSNLWGQGTQVTVSSGGGGSGGGGSGGGGSVQLQESGGGLVQPGGSLRLSCAASGSIFSINSMGWYRQAPGKWRELVATVTRGGSTNYANSVKGRFTISRDNAKNTVYLQMNTLRPEDTAVYYCHLDEVRDSSWTTSNLWGQGTQVTVSSGGGGSGGGGSGGGGSVQLQESGGGLVQTGGSLRLSCAASGRAFSLNTMGWYRQAPGKWRELVATVTRGGSTNYAGSVKGRFTISRDNAKNTVYLQMNNLRPEDTAVYYCHVDEVRESSWTTSNLWGQGTQVTVSS
B2: A4-D9 (bispecific antibody)
chain: VQLQESGGGLVHSGGSLRLSCAASGSMFSLNTMGWYRQAPGKQRELVATITRGGGTSYADSVKGRFTISRDNAKNTVYLQMNSLRPEDTAVYYCHVDELRQSSWTTSNLWGQGTQVTVSSGGGGSGGGGSGGGGSVQLQESGGGLVQPGGSLRLSCAASGSRFSLNTMGWYRQAPGKQRELVATVTRGGSTNYADFVKGRFTISRDNAKNTVYLQMNSLRPEDTAVYYCHVDELRESGWTTSNLWGQGTQVTVSSGGGGSGGGGSGGGGSVQLQESGGGLVQPGGSLRLSCAASGSRFSLNTMGWYRQAPGKQRELVATVTRGGSTNYADFVKGRFTISRDNAKNTVYLQMNSLRPEDTAVYYCHVDELRESGWTTSNLWGQGTQVTVSSGGGGSGGGGSGGGGSVQLQESGGGLVQTGGSLRLSCAASGRAFSLNTMGWYRQAPGKWRELVATVTRGGSTNYAGSVKGRFTISRDNAKNTVYLQMNNLRPEDTAVYYCHVDEVRESSWTTSNLWGQGTQVTVSS
B3: A4-D8 (bispecific antibody)
chain: VQLQESGGGLVQPGGSLRLSCAASGSRFSLNTMGWYRQAPGKQRELVATVTRGGSTNYADSVKGRFTISRDNAKNTVYLQMNSLRPEDTAVYYCHVDELRESGWTTSNLWGQGTQVTVSSGGGGSGGGGSGGGGSVQLQESGGGLVQPGGSLRLSCAASGSRFSLNTMGWYRQAPGKQRELVATVTRGGSTNYADFVKGRFTISRDNAKNTVYLQMNSLRPEDTAVYYCHVDELRESGWTTSNLWGQGTQVTVSSGGGGSGGGGSGGGGSVQLQESGGGLVHSGGSLRLSCAASGSMFSLNTMGWYRQAPGKQRELVATITRGGGTSYADSVKGRFTISRDNAKNTVYLQMNSLRPEDTAVYYCHVDELRQSSWTTSNLWGQGTQVTVSSGGGGSGGGGSGGGGSVQLQESGGGLVQPGGSLRLSCAASGSRFSLNTMGWYRQAPGKQRELVATVTRGGSTNYADFVKGRFTISRDNAKNTVYLQMNSLRPEDTAVYYCHVDELRESGWTTSNLWGQGTQVTVSS
B4: A4-D6 (bispecific antibody)
chain: VQLQESGGGLVQTGGSLRLSCAASGRAFSLNTMGWYRQAPGKWRELVATVTRGGSTNYAGSVKGRFTISRDNAKNTVYLQMNNLRPEDTAVYYCHVDEVRESSWTTSNLWGQGTQVTVSSGGGGSGGGGSGGGGSVQLQESGGGLVQTGGSLRLSCAASGRAFSLNTMGWYRQAPGKWRELVATVTRGGSTNYAGSVKGRFTISRDNAKNTVYLQMNNLRPEDTAVYYCHVDEVRESSWTTSNLWGQGTQVTVSSGGGGSGGGGSGGGGSVQLQESGGGLVQPGGSLRLSCAASGSIFTINSMGWYRQAPGKWRELVATVTRGGNTNYANSVKGRFTISRDNAKNTVYLQMNTLRPEDTAVYYCHLDEVRDSSWTTSNLWGQGTQVTVSSGGGGSGGGGSGGGGSVQLQESGGGLVQPGGSLRLSCAASGSIFSINSMGWYRQAPGKWRELVATVTRGGSTNYANSVKGRFTISRDNAKNTVYLQMNTLRPEDTAVYYCHLDEVRDSSWTTSNLWGQGTQVTVSS

Biological target: T1, AAV8
Experiment: SPR, AAV amine-coupled to CM5 chip

Binder | Kd | koff | kon
B1 | 1.41 nM | 1.79e-05 s⁻¹ | 12700 M⁻¹ s⁻¹
B2 | 0.318 nM | 9.9e-06 s⁻¹ | 31100 M⁻¹ s⁻¹
B3 | 0.228 nM | 1.1e-05 s⁻¹ | 48200 M⁻¹ s⁻¹
B4 | 1.02 nM | 1.63e-05 s⁻¹ | 16000 M⁻¹ s⁻¹

From patent US20260062463A1 (KANGYUAN BIOMEDICAL TECH DALIAN, published 2026)
